Assay results published in patent US20180147231A1, “METHOD FOR TREATMENT AND PROGNOSIS OF COLORECTAL CANCER” (Oxford University Innovation Limited, priority 2015, published 2018).

Tests used:
[1] = test system: T84 CRC cells (KRAS-mutant, IL22RA1 high); experiment: Primary sphere forming assay, T84 cells; format: cell-based, human; details: 10 ng/mL IL-22 pre-treatment 48 h, spheres cultured 6 days
Protocol: (A) Schematic representation of primary sphere forming assay workflow. Cells were pre-treated with 10 ng/mL IL-22 for 48 hours, filtered to single cells and 1000 cells/well were seeded into 96 well low-binding plates in serum-free media containing 1% methylcellulose, 20 ng/mL EGF, 20 ng/mL bFGF with and without 10 ng/mL IL-22. Four experimental replicates were seeded for each condition. Cultured spheres from (B) Colo205, T84 and SW480 cell lines for 6 days. (C) Bright field microscopy images (4×) of single wells 6 days after seeding (1 experiment representative of 4). (D) MTT assay to assess viability of spheres 6 days after seeding (n=3). (E) Bright field microscopy of T84 spheres (20×) 6 days after seeding. (F) Quantification of spheres after 6 days of culture using ImageJ. Data represent mean+/−SD of 3 independent experiments, each with 3 technical replicates per condition. *p<0.05, one-way ANOVA with Dunnett's post test for multiple comparisons.
Colo205, T84, and SW480 cells were pretreated for 48 h in 48 well plates with 10 ng/mL IL-22 (R&D Systems). Cells were filtered to single cells using […] filter and 1000 cells/well were seeded into 96 well low binding plates (Corning) in 1% methylcellulose in IMDM (R&D Systems), 20 ng/mL recombinant EGF (Sigma), 20 ng/mL recombinant basic FGF (Peprotech), lx insulin-transferrin selenite (ITS) (Sigma) in serum-free DMEM. […]

[2] = test system: DLD-1 KRAS MUT cells (heterozygous KRAS G13D); experiment: Phosflow analysis of intracellular signaling, DLD-1 KRAS MUT; format: cell-based; details: 30 min 10 ng/mL recombinant human IL-22
Protocol: (§1) Therefore this isogenic pair differs only in KRAS mutation status and allows a clean system for comparison of KRAS-dependent IL-22 effects without inter-cell line mutational heterogeneity. (A) Representative FACS plots of IL-22RA1 expression and quantification of mean fluorescence intensity (WI) showing similar IL-22RA1 expression in the isogenic pair (4 experimental replicates). […] MTT was added 2 h prior to end of 48 h incubation. Formazan particles were dissolved in DMSO and absorbance was measured at 540 nm. Raw absorbances are blank corrected, normalized to a no treatment, and represented as a % viability compared to the no treatment condition. n=5 independent experiments with 3 experimental replicates. p values computed by non-parametric Mann-Whitney test comparing 5 FU alone to IL-22 pretreatment with 5 FU for each DLD-1 line.
Adherent Colo205, T84, SW480, and DLD-1 cells were dissociated using StemPro® Accutase® (Life Technologies), filtered through […] filters, and counted by Trypan Blue exclusion. 5×10^5 cells of each line were stained with 5 μL Human IL-22 R alpha 1 Phycoerythrin MAb (Clone 305405) (R&D Systems) or […] isotype rat anti-mouse IgG1 PE (BD Biosciences) and incubated for 30 minutes at room temperature. Cells were washed with PBS, 0.1% BSA, 2 mM EDTA and acquired on the BD LSRII. Analysis was performed using FlowJo (Tree Star) software. For analysis of intracellular signaling pathways by phosflow, DLD-1 isogenic cells were plated in 6 well plates (1.5 million cells/well) in serum free RPMI and allowed to adhere overnight. DLD-1 cells were then stimulated or not for 30 minutes with increasing doses of recombinant human IL-22 (0.001 ng/mL-100 ng/mL). Cells were dissociated with TrypLE, fixed for 10 min at 37° C. with BD Cytofix Fixation Buffer. Cells were then permeabilized in BD Phosflow Perm Buffer III for 30 min on ice. […]

DLD-1 KRAS MUT cells = experiment: Chemotherapy killing assay (MTT), DLD-1 KRAS MUT; format: cell-based, human; details: 48 h pre-treatment with 10 ng/mL IL-22, then 50 μM 5-FU for 48 h
Protocol: as §1
Colo205, T84, SW480, and DLD-1 cells were seeded at a density of 1×10^4 cells/well in 48 well plates. Cells were pre-treated for 48 h with 10 ng/mL IL-22, then subjected to 50 μM oxaliplatin (Sigma) or 5-fluorouracil (Sigma) or vehicle control (DMSO) for 48 h. 50 μg Methylthiazolyldiphenyl-tetrazolium bromide (MTT) (Sigma) was added to each well 2 h prior to the end of incubation. […] Absorbance was measured at 540 nm on Spectrostar Nano plate reader (BMG Labtech).

B1: IL-22: recombinant human IL-22 (R&D Systems), IL-10 superfamily cytokine; human sequence SEQ ID NO: 5 (protein, listed as Homo sapiens)
chain: MAALQKSVSSFLMGTLATSCLLLLALLVQGGAAAPISSHCRLDKSNFQQPYITNRTFMLAKEASLADNNTDVRLIGEKLFHGVSMSERCYLMKQVLNFTLEEVLFPQSDRFQPYMQEVVPFLARLSNRLSTCHIEGDDLHIQRNVQKLKDTVKKLGESGEIKAIGELDLLFMSLRNACI
**Q.** Which “Clonogenic outgrowth (sphere formation)” value [1] does the source give for B1 here?
**A.** The value was “enhances clonogenic outgrowth”.

**Q.** What about the “Phosphorylated ERK1/2” value [2] of the same molecule?
**A.** Its value is “not IL-22 inducible”.

**Q.** What about the “Phosphorylated S6” value [2] of the same molecule?
**A.** Its value is “IL-22 inducible phosphorylated S6”.

**Q.** And the “Phosphorylated STAT3” value [2]?
**A.** The value was “identical extent of phosphorylated STAT3”.

**Q.** And the “Protection against 5-fluorouracil mediated cell death” value (DLD-1 KRAS MUT cells)?
**A.** The value was “protects against 5 fluorouracil mediated cell death”.
